Experimental data as given in the nanobody polyreactivity screen of Harvey et al. (2022).

experiment: yeast display, Sf9 membrane polyspecificity reagent, FACS + sequencing; frameworks hold sequencing errors
Summary of the method: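 Nanobodies from a synthetic yeast display library (Saccharomyces cerevisiae BJ5465), induced 36–48 hours with galactose, were stained 1 hour at 4 °C with 10% biotinylated, detergent-solubilized Sf9 membrane reagent, enriched on streptavidin microbeads, then FACS-sorted. Anti-HA (expression) and streptavidin (reagent binding) fluorescence set low and high (top ~1%) gates. Polyreactivity labels come from the gate of origin. Genes were colony-PCR amplified, MiSeq 2 × 250 sequenced and filtered by CDR length.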

Sequence | polyreactivity (PSR sort gate)
QLQLVESGGGLVQAGGSLRLSCAPSGRILWVNAMGWYRQAPGKERELVAAISLSGGRTYYADSVKGRFTISRDNAKNTVYLQMNSLKPEDTAVYYCAARTVNYYYTTGDYWGQGTQVTVSS | low polyreactivity
QLQLVESGGGLVQAGGSLRLSCAPSGRTFVGNAMGWYRQAPGKERELVAAITLSDGSTYYADSVKGRFTISRDNAKNTVYLQMNSLKPEDTAVYYCATQPLYWYDVVVNIRGPSGYWGQGTQVTVSS | low polyreactivity
QLQLVESGGGLVQAGGSLRLSCAPSGSIFLNYAMGWYRQAPGKERELVATIRRRGGSTYSADSVKGRFTISRDNAKNTVYLQMNSLKPDDTAVYYCNAEQLVSRARPYDYWGQGTLVTVSS | high polyreactivity
QLQLVESGGGLVQAGGSLRLSFAASSIIPYNAMGWYRQAPVNEREFVAAISVRGVITYYADSVKGRFTISRDNAKNTVYLQMNSLKPEDTAVYDCAADYQPAGVDYWGQGTQVTVSS | low polyreactivity
QLQLVESGGGLVQAGGSLRLSSAASGSIFIYYAMGWYRQAAGKERELVAAISYSDGDTYYADSVKGRFTISRDNAKNTVYLQMNSLKPEDTAVYYCAAEVPQYYDVGWEDYWGQGTQVTVSS | high polyreactivity
QLQLVESGGGLVQAGGSLSLSCAASGRTVYGYSMGWYRQAPGKERELVAAISKTGGSTYYADSVKGRFTISRDNAKNTVYLQMNSLKPEDTAVYYCNARDTSGFTRFSSKYDYWGQGTQVTVSS | high polyreactivity
QLQLVESGGGLVQAGGSLSLSCAASGSIFGYNAMGWYRPAPGKEREFVAAISFRGTSTYYADSVKGRFTISRDNAKNPVYLQMYSLKPEDTAVYYCAARSYDGDHYKHGYWGQGTQVTVSS | high polyreactivity
QLQLVESGGGLVQEGGSLRISCDASGSTFDDNAMACYRQAPGKERELVAGIDVSGGSTYYADSVKGRFTISRDNAKKTVYLQMTSLTPEDTAVYFCAKGRPGHRTSSVNFNYWGQGTQVTVSS | low polyreactivity
QLQLVESGRGLVQAGGSLRLSCAASGSIFYSNAKGWYRQATGKERELVATITWSGGRTYYADSVKGRFTISRDNGKNSVYLQMNRLKPEDTAVDYCAVVDRHQPYGRQLDYWGQGTQVTVSS | low polyreactivity
QLQLVESGRGLVQAGGSLRLSCAASVRTFTCYTMGSYRQAPGKEREFVAAIRKSGGSTYYADSVKGRFTISRDNAKNTVYLQMNSLKPEDTAVYYCAAERLYGYWKYIGYDWGQGTQVTVSS | high polyreactivity
QLQLVESGRGLVQAGGTLRLSCAASGRIFGKNAIGSYRQAPGKEMELVAAITGSGGRTYNADSVKGRFTISRDNAKNTVYLQMNSMKPEDTAVYYCAVRVTSYYRTMDYWGQGTQGTVSS | low polyreactivity
QLQLVESGVGLVQAGGSLRLSCAASGSILPVYPMGWYRQAPGKERELVAAISVSGGSTSYADSVKGRFTISRDNAKNTVYLQMNSLKPEDTAVYYCAARYRYSYGYWGQGSQVTVSS | high polyreactivity
QLQLVETGGGLVQAGGSLRLSCAASGFTLYSYAMGWYRQDPGKEREFVADGSTYYADSVKGRFTISRDNAKNTVYLQINSLKPEDTAVYYCAADPWIYVQSYGYWGQGTQVTVSS | low polyreactivity
QQQLHESGGGLVQAGGSLRLSCAASGSISQAWYMGWYRQAPGKERELVAAINVGAITYYADIVKGRFSISRDNAKNTVFLPMNSLTPEDTAVYYCAVDQYSEAYYDYWGQGTQATVSS | high polyreactivity
QRQLVESGGGLVQAGGRLRLSCAASGMTVWDYAMGWYRHATGKERQLVAAISGSGARTYYADSVKWRFTISRDTAKNTVYLQMNSLNPEDTAVYYCAARAVRATAKYEYWGQGTQVTVSS | high polyreactivity
QVDLVASGGGLVQAGGSLRLSCAASGNIFANYAMGSYRQAPGKERELVAAIRWSASRTYYADSVKARFTISRDNAKNSVYFQLNSLKPEDTAVYYCAATIYTFWDYYYDYWGQGTQVTVSW | high polyreactivity
QVEHLDSGGGLVQAGGILRLSCASSGIIFGYYAMGWYRQEPGKERELVAGITYRTGSTYYADSVKGRFTISRDNAKNTVYLQMNSLKPEDTEVYFCAATQYTRNYSSWYYYWGQGTQVTVSS | high polyreactivity
QVEIVESGGGLVQAGGSLRLSCAASGRTFSYYAMGWYRQAPGKERELVAAISTSGGSTYYAVSVKGRFTISRDYAKITVYLQMNSLKPEDTAVYVCAASPYLRFLYGGFGYWGQGTQVTVSS | high polyreactivity
QVELVASGGGLVQAGGSLRIRCAASGGIFDGNAKGWYRQAPGKEREMVAAISSGGITKYAASVKGRFTISRDNAQYTVYLQMNSLKPEDSAVYYCAASWDRYRFIRNDYWGQGTQVTVSS | high polyreactivity
QVELVESAAGLVQAGGSLRLSCAASALTFSRYTMGWYSQAPGKDRELVAAISRSGASTYYADSVKGRFTISRDNAKNTVYLQTNSLTPEDTGVYYCAKTSTSYGSLPKVTPYPLDYWGQGTQVTVSS | high polyreactivity

Sequence | polyreactivity (PSR sort gate)
QVELVESGGGLVQAGGRPRLSCAASGSTFAGYAMGWERQAPGKERELVAAISRRGGSTYYADSVKGRFTISRDNAKNTVYLQMNSLKPEDTAVYFFARDYPLHYDYWGQGTQVTVSS | high polyreactivity
QVELVESGGGLVQAGGSLRLSCAASGFIFEKYTMGWYRQATGKETELVADITWNGGSTYYADSVKGRFTISRDNAKNTVYLQMNSLKPEDNAVYYCAARVGWNQRRYDYWGQGTQVTVSS | low polyreactivity
QVELVESGGGLVQAGGSLRLSCAASGFIFYRYTMGWYRQAPGKEREVVAAISRRGGSTYYADSVKGRFTISRDNAKNTVYLQLNSLKPEDTAGYYCAARLGGYPRQGRYDYWGQGTQVTVSS | high polyreactivity
QVELVESGGGLVQAGGSLRLSCAASGFTFDRYAMGWYRQAPGTERELVAALTRRGTTTYYADSVKGRFTISRDNAKNTVYLQMNSLKPEDTAVYYCAAKRGSVSRPDYGANDESWGQGTQVTVSS | high polyreactivity
QVELVESGGGLVQAGGSLRLSCDASGITFRSYAMGWYRQAPGKERELVAAIRSGGSTSYADSVKGRFTISRDNAKNTVYLQMNSLKPEDTAVYFCAAGGYVPLTDITFWKFGYWGQGSQVTVSS | low polyreactivity
QVHHVESGFGLVQAGGSLRLSCASSGTFTVNTMGWYRQAPGKERELVAAISTGDTTTYADSVKGRFTISRDNAKNTVYLQMNSLKPEDTAVYYCNVDIGVYAYESDYWGQGTQVTVSS | low polyreactivity
QVHHVESGGGLVQAGGSLRLSCAASGIIFGYNVMGWYRQEPGKVRELVAAMRYSGGSTYYADSVKGSFTISRDNAKNTVYLQMNSLKPEDTAVYYCATYSAVRELLWGNGYWGQGTQVTVSS | high polyreactivity
QVHHVESGGGLVQAGGSLRLSCAASGITFSSYAMGWYRQAPRKERELVAAISYGGGNTYYADSVKGRFTISRDNAKNTVYLQMNSLKPEDTAVYYCNTLYTSYSGLDYWGQGTQVTVSS | high polyreactivity
QVHHVESGGGLVQAGGSLRLSCAASGLTFYGYTMGRSRQAPGKERELVAAISRGTSTKYADSVKGRFTISRDNAKNTVYLQMNSLKPEETAVYYCAAKGSRSGMGYWGQGTQVTVSS | high polyreactivity
QVHHVESGGGLVQAGGSLRLSCAASGSTFGAHAMGWYRQAPGKERELVAVITWNDGSTYYADSVKGRFKISRDNAKNTVYLQMNSLKPEDTAVYYCAAEYADSWSAFAWNYYYWGQGTQVTVSS | high polyreactivity
QVHHVESGGGLVQAGGSLRLSCAASGSTFYGYALGWYRQAPGKERELVAAITGSGDTTYYADSVKGRFTISRDNAKYTVYLQMNSLKPEDTAVYYCNRDYRSDLGYADQSWTDQYDHWGQGTQVTVSS | low polyreactivity
QVHHVESGGGLVQAGGSLRLSSAASGSIFTYTMGWYRQAPGKERELVAAISGGGGRTYYADSVKGRFTISRDNAKNNVYLQMKSLKPEDSAVYYCNAYQYWRYRWQYNYWGQGTQVTVSW | high polyreactivity
QVHHVESGGGLVQAGGSLRLSSAASGSIISYYAMGWSRHAPGKERELVPAINRSGGSTYYADSVKGRFTITRDNAKNTVYLQMNSLKPDDTAVYYCNAVRLYYGAGGQFQYHYWGQGTHVTVSS | high polyreactivity
QVHIVESGGGLVQAGGSLRLSSAASGRIFYRYAMGWYRQAPGKERELVAAISRRGGSTYYADSVKGRFTISRDNAKNTVYLQMNSLKPEDTAVYYCNVYRSAFSYDSWGQGTQVTVSS | high polyreactivity
QVHLEESGGGLVQAGGSLRLSCAASGRTFRHNAMGWYRQAPGKERELVAAISSSGTNTHYADSVKGRFTISRDNAKNTVYLQMNSLKPEDTAVYYCAADRWGARRKQYHENGYWGQGTQVTVSS | high polyreactivity
QVHLEESVGGLLQAGGSLRLSCVASGSTFGAYAMGWYRQAPGKERELVAAINTGDSTNYADSVKGRFTISRDNAKNTVYFQMNSLKPVDTAVYYCAAVSKHSGDELDYWGQGTQVTVSS | high polyreactivity
QVHLGESGARIDQAGGSLRLSCAASGRIFKYNAMGLYRQAPGKEREWVAAISSGGSTNYADTEKGRFTISRDNAKNTVYLQMNSLKPEDTAVYYCAADGTRVSSFHYLVWLGYWGQGTQVNVSS | low polyreactivity
QVHLGESGGGLVQAGGSLRLSGAASGFTFAVNAMGWYRQAPWNERELVAGITSGGRTNYADSVKGRFTISRDNAKNTVYLQMTSLKPEVTAVYYCAAARRYSKGYVPPYYKYRYDYWGQGTHVTVSS | high polyreactivity
QVHLLESGRGLVQAGGSLRLSCAASGRIFYTNAMGSYRQAPGKERELVAVISWGGDTTYYADSVKGRFTISRDNAKNTVYLQMNSLKPEDTAGYYCNADWGPTYEISDSWGQGNQVTVSS | low polyreactivity
QVHLQESAGGLVQAGGSLRLTCSASGYISFDASMGWYRQAPGKERELAASIPKGSSTNYADSVKGRFTIRDNATITVYLQMNSLQPEDTAVCYCAVTYPYWGDYTYWGQGTQVTVSC | low polyreactivity
